Assay results reported in PMC5637921, “An engineered photoswitchable mammalian pyruvate kinase” (The Febs Journal, 2017).

Molecular target: the molecule itself
Test: SEC; preparative SEC after Ni affinity; HiLoad 16/600 Superdex 200 pg, 0.5 mL/min, 50 mM Tris/HCl pH 7.5, 10 mM MgCl2, 200 mM NaCl, 150 mM KCl, 5% glycerol, 0.5 mM TCEP

B1: mPKM2 internal LOV2 fusion at position D24 (PiL[D24]) (enzyme)
chain: not shown
notes: mouse pyruvate kinase M2 isoform (mPKM2), residues 1-24, amplified from pLHCX-flag-mPKM2; N-terminal part up to Asp24; Avena sativa phototropin 1 (NPH1-1) LOV2 domain, residues 404-540, amplified from plasmid pDS257 (Mid2(SS/TM)-GFP-LOVpep); G528A and N538E of the template were backmutated to wild-type LOV2; numbers count on phototropin 1 (NPH1-1, GenBank AAC05083.1); mouse pyruvate kinase M2 …
In the case of B1, the “stoichiometry N” value is reported as 4.
